The target in the assay is T1, human CD37 (human (Homo sapiens), UniProt P11049 1-281).
T1 construct: Endogenous on Daudi cells, Raji cells and human blood B cells; also called Leukocyte Antigen CD37; GP52-40
T1 sequence: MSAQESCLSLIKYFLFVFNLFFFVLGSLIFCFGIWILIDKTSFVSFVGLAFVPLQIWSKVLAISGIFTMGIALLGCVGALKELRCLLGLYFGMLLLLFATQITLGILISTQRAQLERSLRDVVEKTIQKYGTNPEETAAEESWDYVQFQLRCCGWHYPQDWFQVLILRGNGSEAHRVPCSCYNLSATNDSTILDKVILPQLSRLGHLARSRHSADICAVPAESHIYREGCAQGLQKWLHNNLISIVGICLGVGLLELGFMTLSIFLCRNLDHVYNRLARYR
The assay can be described thus: flow cytometry on HEK293 cells expressing wild type CD37 or alanine mutants, Alexa488 antibody at 3 µg/mL. As for the experimental part: The wild type CD37 and alanine mutants were expressed individually in FreeStyle HEK293 cells according to the manufacturer's instructions (Thermo Scientific). One day post transfection the cells were harvested. […] Cells were incubated for 1 hour at room temperature. Subsequently, cells were washed twice by adding 150 μL FACS buffer and removing the supernatant after centrifugation. Cells were resuspended in 20 μL fresh FACS buffer and stored at 4° C. until analysis by flow cytometry using an iQue screener (IntelliCyt). The entire experiment was performed 2 times.

B1: bsIgG1-016-H5L2-LC90S-F405L-E430Gxb12-K409R-E430G (bispecific antibody)
heavy 1: not shown
light 1: DVVMTQSPSTLSASVGDRVTITCQASQNIDSNLAWYQQKPGKAPKFLIYYASNLPFGVPSRFKGSGSGTEFTLTISSLQPDDFATYYCQSADVGSTYVAAFGGGTKVEIKRTVAAPSVFIFPPSDEQLKSGTASVVCLLNNFYPREAKVQWKVDNALQSGNSQESVTEQDSKDSTYSLSSTLTLSKADYEKHKVYACEVTHQGLSSPVTKSFNRGEC
heavy 2: not shown
light 2: EIVLTQSPGTLSLSPGERATFSCRSSHSIRSRRVAWYQHKPGQAPRLVIHGVSNRASGISDRFSGSGSGTDFTLTITRVEPEDFALYYCQVYGASSYTFGQGTKLERKRTVAAPSVFIFPPSDEQLKSGTASVVCLLNNFYPREAKVQWKVDNALQSGNSQESVTEQDSKDSTYSLSSTLTLSKADYEKHKVYACEVTHQGLSSPVTKSFNRGEC
notes: also called antibody 016
As for B1, the binding result was “binds”.

The values are drawn from US20240252635A1 (Genmab, published 2024).
